Assay results published in publication PMC11202169, “A Novel Fluorescence-Based Microplate Assay for High-Throughput Screening of hSULT1As Inhibitors” (Biosensors, 2024).

Tests used:
Assay type in all cases: biochemical, human
Conditions in all cases: other: HN-241 4-O-sulfation
[1] = substrate: CCN1C(=O)c2cccc3c(O)ccc(c23)C1=O; experiment: Enzymatic kinetics of hSULT1A2-catalyzed HN-241 4-O-sulfation
Protocol: (§1) The enzymatic kinetic parameters of hSULT1As-catalyzed HN-241 4-O-sulfation were measured by incubating increasing concentrations of HN-241 with each of the hSULT1As for a certain period. The fitting equations included Equation (2), the Michaelis–Menten equation, and Equation (3) for enzyme kinetics with substrate inhibition. Related kinetic parameters were fitted by GraphPad Prism 8.0 (San Diego, CA, USA). (2) V=Vmax × [S]/Km+[S] (3) V=Vmax × [S]/Km+[S](1+[S]/Ki)
(§2) [S] refers to the concentration of HN-241, Vmax is the maximum rate of hSULT1As-catalyzed HN-241 4-O-sulfation, Km is the substrate concentration at the half Vmax, and Ki represents the dissociation constant for the binding of the substrate to the inhibitory site.

[2] = substrate: CCN1C(=O)c2cccc3c(O)ccc(c23)C1=O; experiment: Enzymatic kinetics of hSULT1A1-catalyzed HN-241 4-O-sulfation
Protocol: as §1, §2

[3] = substrate: CCN1C(=O)c2cccc3c(O)ccc(c23)C1=O; experiment: Enzymatic kinetics of hSULT1A3-catalyzed HN-241 4-O-sulfation
Protocol: as §1, §2

B1: hSULT1A2 (Homo sapiens) (protein)
chain: MELIQDISRPPLEYVKGVPLIKYFAEALGPLQSFQARPDDLLISTYPKSGTTWVSQILDMIYQGGDLEKCHRAPIFMRVPFLEFKVPGIPSGMETLKNTPAPRLLKTHLPLALLPQTLLDQKVKVVYVARNAKDVAVSYYHFYHMAKVYPHPGTWESFLEKFMAGEVSYGSWYQHVQEWWELSRTHPVLYLFYEDMKENPKREIQKILEFVGRSLPEETVDLMVEHTSFKEMKKNPMTNYTTVRREFMDHSISPFMRKGMAGDWKTTFTVAQNERFDADYAKKMAGCSLSFRSEL
notes: 6-histidine tag (N); TEV site (N); made in house; host or cells: Escherichia coli BL21 (DE3), pET29a(+)
In the case of B1, the Km [1] is reported as 4.47 ± 0.20 µM, the Vmax [1] is reported as 0.00644 µmol/min/mg and the Vmax/Km [1] is reported as 1440 µL/min/mg.

B2: hSULT1A1 (Homo sapiens) (protein)
chain: MELIQDTSRPPLEYVKGVPLIKYFAEALGPLQSFQARPDDLLISTYPKSGTTWVSQILDMIYQGGDLEKCHRAPIFMRVPFLEFKAPGIPSGMETLKDTPAPRLLKTHLPLALLPQTLLDQKVKVVYVARNAKDVAVSYYHFYHMAKVHPEPGTWDSFLEKFMVGEVSYGSWYQHVQEWWELSRTHPVLYLFYEDMKENPKREIQKILEFVGRSLPEETVDFVVQHTSFKEMKKNPMTNYTTVPQEFMDHSISPFMRKGMAGDWKTTFTVAQNERFDADYAEKMAGCSLSFRSEL
notes: as for B1
In the case of B2, the Km [2] is reported as 0.91 ± 0.24 µM, the Vmax [2] is reported as 0.0221 ± 0.00443 µmol/min/mg and the Vmax/Km [2] is reported as 24300 µL/min/mg.

B3: hSULT1A3 (Homo sapiens) (protein)
chain: MELIQDTSRPPLEYVKGVPLIKYFAEALGPLQSFQARPDDLLINTYPKSGTTWVSQILDMIYQGGDLEKCNRAPIYVRVPFLEVNDPGEPSGLETLKDTPPPRLIKSHLPLALLPQTLLDQKVKVVYVARNPKDVAVSYYHFHRMEKAHPEPGTWDSFLEKFMAGEVSYGSWYQHVQEWWELSRTHPVLYLFYEDMKENPKREIQKILEFVGRSLPEETMDFMVQHTSFKEMKKNPMTNYTTVPQELMDHSISPFMRKGMAGDWKTTFTVAQNERFDADYAEKMAGCSLSFRSEL
notes: as for B1
B3 was tested, and the Km [3] was 12.90 ± 1.16 µM, the Vmax [3] was 0.00881 µmol/min/mg and the Vmax/Km [3] was 683 µL/min/mg.
